{"source": "the supplement of paper PMC6379048", "assay_in_all_cases": "Kd (EC50 corrected by depletion factor)", "key": {"TFIP11": {"target": "T1, TFIP11 (UniProt Q9UBB9)", "T1 sequence": "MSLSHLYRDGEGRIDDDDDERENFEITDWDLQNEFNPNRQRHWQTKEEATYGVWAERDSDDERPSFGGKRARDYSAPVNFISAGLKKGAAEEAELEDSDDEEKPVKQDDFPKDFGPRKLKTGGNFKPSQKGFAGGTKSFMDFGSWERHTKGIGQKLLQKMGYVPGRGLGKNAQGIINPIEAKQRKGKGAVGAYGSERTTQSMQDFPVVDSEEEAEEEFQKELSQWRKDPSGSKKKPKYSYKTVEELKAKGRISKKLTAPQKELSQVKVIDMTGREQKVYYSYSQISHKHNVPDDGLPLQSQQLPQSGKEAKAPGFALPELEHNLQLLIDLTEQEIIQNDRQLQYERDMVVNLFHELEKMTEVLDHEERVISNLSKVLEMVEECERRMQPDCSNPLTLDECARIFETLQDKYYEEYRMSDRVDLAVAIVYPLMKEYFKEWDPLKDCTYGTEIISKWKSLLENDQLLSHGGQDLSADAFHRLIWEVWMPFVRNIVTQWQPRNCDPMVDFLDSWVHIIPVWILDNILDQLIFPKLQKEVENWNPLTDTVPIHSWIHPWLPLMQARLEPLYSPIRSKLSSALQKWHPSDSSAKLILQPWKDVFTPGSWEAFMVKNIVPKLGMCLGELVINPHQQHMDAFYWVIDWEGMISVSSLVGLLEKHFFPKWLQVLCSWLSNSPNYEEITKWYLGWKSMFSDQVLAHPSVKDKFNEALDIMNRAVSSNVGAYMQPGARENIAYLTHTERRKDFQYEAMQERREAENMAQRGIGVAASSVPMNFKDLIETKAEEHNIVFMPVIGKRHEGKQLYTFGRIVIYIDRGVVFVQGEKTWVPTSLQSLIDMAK", "summary_of_the_method": "(§1)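 To obtain EC50, data were fitted with a four-parameter log-logistic model; Kd was then EC50 multiplied by a protein-dependent depletion factor. Beforehand, free RNA oligos (0 nM to 30 μM) were pre-incubated with HEK293-FT lysate (2.5 mg protein/well) for 1 h at 4°C. The lysate then spent 30 min at 4°C with the same 5′-amino-C6 oligos coupled to NHS-Sepharose beads, and bound proteins were quantified by label-free LC-MS/MS, normalised to the control.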"}, "SRSF3": {"target": "T2, SRSF3 (UniProt P84103)", "T2 sequence": "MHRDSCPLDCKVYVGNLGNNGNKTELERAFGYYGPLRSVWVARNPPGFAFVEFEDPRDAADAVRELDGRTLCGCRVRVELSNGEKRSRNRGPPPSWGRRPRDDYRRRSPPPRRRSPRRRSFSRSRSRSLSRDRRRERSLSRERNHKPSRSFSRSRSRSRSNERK", "summary_of_the_method": "as §1"}, "HNRNPD": {"target": "T3, HNRNPD (UniProt Q14103)", "T3 sequence": "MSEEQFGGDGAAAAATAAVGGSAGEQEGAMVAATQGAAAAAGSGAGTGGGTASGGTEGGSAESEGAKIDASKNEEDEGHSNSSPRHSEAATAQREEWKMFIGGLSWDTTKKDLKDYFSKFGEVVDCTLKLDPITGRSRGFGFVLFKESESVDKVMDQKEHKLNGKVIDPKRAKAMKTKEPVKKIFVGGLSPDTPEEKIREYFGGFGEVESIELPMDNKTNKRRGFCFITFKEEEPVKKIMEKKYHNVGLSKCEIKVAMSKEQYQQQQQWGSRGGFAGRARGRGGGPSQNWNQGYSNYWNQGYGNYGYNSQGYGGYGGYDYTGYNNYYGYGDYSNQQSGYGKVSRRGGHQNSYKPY", "summary_of_the_method": "as §1"}, "CHERP": {"target": "T4, CHERP (UniProt Q8IWX8)", "T4 sequence": "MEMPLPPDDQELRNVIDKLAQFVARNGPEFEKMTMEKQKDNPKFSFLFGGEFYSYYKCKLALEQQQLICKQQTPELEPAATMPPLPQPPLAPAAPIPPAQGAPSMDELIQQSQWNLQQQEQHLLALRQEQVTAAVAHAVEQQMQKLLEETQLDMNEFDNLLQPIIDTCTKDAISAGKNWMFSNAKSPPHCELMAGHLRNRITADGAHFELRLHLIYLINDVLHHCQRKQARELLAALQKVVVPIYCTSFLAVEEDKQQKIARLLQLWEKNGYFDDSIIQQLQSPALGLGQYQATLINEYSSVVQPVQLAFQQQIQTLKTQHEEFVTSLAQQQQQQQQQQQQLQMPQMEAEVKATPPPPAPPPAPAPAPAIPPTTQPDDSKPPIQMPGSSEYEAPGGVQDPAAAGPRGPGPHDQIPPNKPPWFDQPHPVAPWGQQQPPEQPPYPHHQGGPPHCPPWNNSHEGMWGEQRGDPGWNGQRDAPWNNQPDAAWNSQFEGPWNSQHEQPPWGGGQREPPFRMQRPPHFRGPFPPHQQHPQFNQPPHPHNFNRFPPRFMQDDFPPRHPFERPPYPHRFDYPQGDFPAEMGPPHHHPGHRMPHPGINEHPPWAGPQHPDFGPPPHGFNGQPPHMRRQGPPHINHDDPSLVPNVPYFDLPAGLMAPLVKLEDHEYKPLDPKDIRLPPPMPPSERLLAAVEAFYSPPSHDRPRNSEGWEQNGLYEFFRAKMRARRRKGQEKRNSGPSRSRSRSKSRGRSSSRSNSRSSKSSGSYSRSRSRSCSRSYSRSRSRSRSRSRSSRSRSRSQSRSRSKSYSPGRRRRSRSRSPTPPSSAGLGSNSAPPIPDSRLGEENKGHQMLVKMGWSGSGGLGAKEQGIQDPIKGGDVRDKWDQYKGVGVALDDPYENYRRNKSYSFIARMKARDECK", "summary_of_the_method": "as §1"}}, "data": [{"sequence": "AAUAAA", "values": [{"measurement": "Kd", "setting": "TFIP11", "result": 0.569, "unit": "µM"}, {"measurement": "Kd", "setting": "SRSF3", "result": 0.281, "unit": "µM"}, {"measurement": "Kd", "setting": "HNRNPD", "result": 0.764, "unit": "µM"}, {"measurement": "Kd", "setting": "CHERP", "result": 0.255, "unit": "µM"}]}, {"sequence": "CUGUCCU", "values": [{"measurement": "Kd", "setting": "SRSF3", "result": 0.79, "unit": "µM"}]}, {"sequence": "UAUUUAU", "values": [{"measurement": "Kd", "setting": "TFIP11", "result": 1.23, "unit": "µM"}, {"measurement": "Kd", "setting": "HNRNPD", "result": 0.583, "unit": "µM"}, {"measurement": "Kd", "setting": "CHERP", "result": 0.0194, "unit": "µM"}]}]}
